According to article PMC4318572 (Journal of biomolecular screening, 2014):

B1: GST–Fyn SH3–strep (domain or fragment)
chain: not shown

Tests used:
Experiment in all cases: AlphaScreen or HTRF
[1] = biological target: B1
[2] = biological target: 4R0N Tau (human, UniProt P10636-6 1-383)
[3] = biological target: 3R2N Tau (human, UniProt P10636-5 1-410)
[4] = biological target: 4R1N Tau (human, UniProt P10636-7 1-412)
[5] = biological target: 3R0N Tau (human, UniProt P10636-2 1-352)
[6] = biological target: P233A Tau (human, UniProt P10636-8 1-441, P233A)
[7] = biological target: Tau with P232 mutated to alanine (human, UniProt P10636-8 1-441, P232 (alanine scan))
[8] = biological target: P236A Tau (human, UniProt P10636-8 1-441, P236A)
[9] = biological target: 3R1N Tau (human, UniProt P10636-4 1-381)
[10] = biological target: P203A Tau (human, UniProt P10636-8 1-441, P203A)

Measured: binding result

YGRKKRRQRRRRSRTPSLPTPPTREPKK [Tat-tagged peptide spanning the 5th and 6th PXXP motifs in Tau]
binds: [1]

B1
not listed: [1]
binds: all other assays above
